Results: patent US20260242478A1 (published 2026)
Where no end group is shown, it is not given here.

B1: Phage-2505 (peptide)
peptide: LGKWCIPDWMCSGL
modifications: cysteine pairing not given here; also: displayed on phage as fusion to pIII, pIII and linker sequence not given here
notes: not shown: fused to pIII of the bacteriophage
B2: Phage-2500 (peptide)
peptide: GTNWCKPDWMCVGL
modifications: cysteine pairing not given here; also: displayed on phage as fusion to pIII, pIII and linker sequence not given here
notes: as for B1
B3: Phage-2503 (peptide)
peptide: SETWCIPAWMCLDG
modifications: cysteine pairing not given here; also: displayed on phage as fusion to pIII, pIII and linker sequence not given here
notes: as for B1
B4: Phage-2501 (peptide)
peptide: SDKWCIPVWMCEES
modifications: cysteine pairing not given here; also: displayed on phage as fusion to pIII, pIII and linker sequence not given here
notes: as for B1
B5: Phage-2508 (peptide)
peptide: HPSWCTPAWMCQGF
modifications: cysteine pairing not given here; also: fused to phage pIII, linker and fusion site not given here
notes: as for B1
B6: Phage-2510 (peptide)
peptide: EVKWCIPDWMCSVI
modifications: cysteine pairing not given here; also: fused to phage pIII, linker and fusion site not given here
notes: as for B1
B7: Phage-2498 (peptide)
peptide: GEHWCIPAWMCEKM
modifications: cysteine pairing not given here; also: displayed on phage as fusion to pIII, pIII and linker sequence not given here
notes: as for B1
B8: Phage-2506 (peptide)
peptide: VQMLCIPAWMCGME
modifications: cysteine pairing not given here; also: displayed on phage as fusion to pIII, pIII and linker sequence not given here
notes: as for B1
B9: Phage-2507 (peptide)
peptide: VERLCKPLWMCQER
modifications: cysteine pairing not given here; also: fused to phage pIII, linker and fusion site not given here
notes: as for B1
B10: Phage-2511 (peptide)
peptide: LVKLCSPEWMCVGM
modifications: cysteine pairing not given here; also: fused to phage pIII, linker and fusion site not given here
notes: as for B1
B11: Phage-2504 (peptide)
peptide: IPKWCTPSWMCEWV
modifications: cysteine pairing not given here; also: displayed on phage as fusion to pIII, pIII and linker sequence not given here
notes: as for B1
B12: Phage-2499 (peptide)
peptide: GEKWCIPEWMCQDV
modifications: cysteine pairing not given here; also: displayed on phage as fusion to pIII, pIII and linker sequence not given here
notes: as for B1
B13: Phage-2509 (peptide)
peptide: TYKMCIPAWKCAVS
modifications: cysteine pairing not given here; also: fused to phage pIII, linker and fusion site not given here
notes: as for B1
B14: Phage-2497 (peptide)
peptide: WPKLCTPPWMCTVD
modifications: cysteine pairing not given here; also: displayed on phage as fusion to pIII, pIII and linker sequence not given here
notes: as for B1
B15: Phage-2502 (peptide)
peptide: EPKMCTPSWMCRGF
modifications: cysteine pairing not given here; also: displayed on phage as fusion to pIII, pIII and linker sequence not given here
notes: as for B1

Molecular target: T1, 006 PSMA Fab (biotinylated (site not given))
T1 construct: Biotinylated PSMA Fab captured on neutravidin coated plates for the clonal phage ELISA; also called Anti-PSMA Fab
Assay: clonal phage ELISA, biotinylated PSMA Fab on neutravidin plate, anti-M13 HRP detection;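 further: crude clonal phage supernatants added to wells pretreated with blocking buffer either with or without PSMA antigen, bound phage read after washing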

Binder	Phage binding ELISA signal, Anti-PSMA Fab
B1	1.2
B2	1.21
B3	1.2
B4	1.21
B5	1.2
B6	1.19
B7	1.21
B8	1.2
B9	1.2
B10	1.19
B11	1.2
B12	1.21
B13	1.19
B14	1.21
B15	1.2

Molecular target: T1, 006 PSMA Fab
Assay: clonal phage ELISA on plate-bound PSMA Fab, competitor: PSMA antigen pre-incubated in the wells
Method: (§1) Clonal phage were harvested as crude supernatants and screened via standard ELISAs. […] Prior to the addition of clonal phage. wells were incubated with blocking buffer and PSMA antigen or blocking buffer alone. Without washing or aspirating, clonal phage supernatants were then added to the wells and incubated for a short time. Wells were then washed followed by detection of bound phage using a horse radish conjugated anti-M13 antibody.

Binder	Phage binding ELISA signal, Anti-PSMA Fab in presence of PSMA
B1	0.144
B2	0.0855
B3	0.0745
B4	0.0874
B5	0.0911
B6	0.0782
B7	0.0615
B8	0.107
B9	0.0748
B10	0.0667
B11	0.0916
B12	0.0722
B13	0.0792
B14	0.0722
B15	0.0691

Molecular target: T2, PSMA Fab (006 PSMA Fab)
T2 construct: also called Anti-PSMA Fab; anti-PSMA Fab
Assay: clonal phage ELISA; biotinylated PSMA Fab on neutravidin plate, blocking buffer alone; anti-M13 HRP detection;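 further: crude clonal phage supernatants added without washing to wells pretreated with blocking buffer with or without PSMA antigen, short incubation, then washed before detecting bound phage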
Method: as §1

Binder	Phage binding ELISA signal, Anti-PSMA Fab
LTQWCIPQWMCEGS (Row prints L T Q W - I - Q - - - E - S) [Phage-2515]	1.18
VPKWCTPAWMCTGL (Row prints V P K W - T - A - - - T - L) [Phage-2516]	1.18
SLELCRPEWMCVGF (Row prints S L E - - R - E - - - V - -) [Phage-2513]	1.19
LGKMCIPLWMCDGL (Row prints L G K M - I - L - - - D - L) [Phage-2512]	1.19
EIKWCTPAWMCAIN (Row prints E I K W - T - A - - - - I N) [Phage-2514]	1.18
VDNWCTPMWMCAWI (Row prints V D N W - T - M - - - - W I) [Phage-2517]	1.18

Molecular target: T2, PSMA Fab (006 PSMA Fab)
Assay: clonal phage ELISA; biotinylated PSMA Fab on neutravidin plate, wells pre-incubated with PSMA antigen as competitor; anti-M13 HRP detection;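 further: crude clonal phage supernatants added to antigen-treated wells without a wash, incubated briefly, then bound phage read out via horse radish–conjugated anti-M13 antibody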
Method: as §1

Binder	Phage binding ELISA signal, Anti-PSMA Fab in presence of PSMA antigen
LTQWCIPQWMCEGS (Row prints L T Q W - I - Q - - - E - S) [Phage-2515]	0.0537
VPKWCTPAWMCTGL (Row prints V P K W - T - A - - - T - L) [Phage-2516]	0.0721
SLELCRPEWMCVGF (Row prints S L E - - R - E - - - V - -) [Phage-2513]	0.0955
LGKMCIPLWMCDGL (Row prints L G K M - I - L - - - D - L) [Phage-2512]	0.0573
EIKWCTPAWMCAIN (Row prints E I K W - T - A - - - - I N) [Phage-2514]	0.0972
VDNWCTPMWMCAWI (Row prints V D N W - T - M - - - - W I) [Phage-2517]	0.109
